Experimental data as given in the supplement of paper PMC9170038.

Tested on: MS2 coat protein
Experiment: apparent KD of MS2 coat protein; designed switch direction (-1 OFF switch, 1 ON switch): 1; higher = weaker reporter binding
Outline: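 Designed RNA switches were transcribed on Illumina chips by stalled E. coli RNA polymerase and titrated with SNAP-549-labelled MS2 coat protein from 0.7 or 1.5 nM, doubling to 3 µM. Step length ran from 0.8–1.5 h at the lowest concentration to 10–20 min at the highest. The apparent KD is the median over clusters for each design, from curve-fitted normalised cluster fluorescence.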

[1] = input ligand: microRNA oligo, concentration not stated
[2] = Eterna round: R95, input ligand: FMN 200 uM
[3] = Eterna round: R95, input ligand: microRNA oligo, concentration not stated
[4] = Eterna round: R95, input ligand: none

Sequence	apparent KD of MS2 coat protein [1] [nM]	apparent KD of MS2 coat protein (input ligand: FMN 200 uM) [nM]	apparent KD of MS2 coat protein (input ligand: none) [nM]	apparent KD of MS2 coat protein [2] [nM]	apparent KD of MS2 coat protein [3] [nM]	apparent KD of MS2 coat protein [4] [nM]
AAGAAACAUGAGGAUCACCCAUGUAAGAUAAACACAGGAUAUGCGAAUAAAAUAAAUAAAGCAGAAGGGUGAAGAA [Mat - Same State 1 - Tesla mod - D150] (Eterna round: R96, puzzle: Same State 1)	38.9	–	–	–	–	–
AAGUGGAACUGAGGAUAUGGCAUCCGAACAUGAGGAUCACCCAUGUAGUUAGGAAAAGAACGGAGCCAGAAGGUAGGACUCCGC [Soqube] (Eterna round: R96, puzzle: Same State NG 2)	9.65	10.6	15	–	–	–
AAUAUACAUGAGGAUCACCCAUGUUAGUAAAUGACAGGAUAUGCAAUAAAUAAAUAAUAAGCAGAAGGGUCUAAUA [JMF's solution 1] (puzzle: Same State 1)	–	–	–	13.7	14.2	16
AAUCGUUUGAUAGGAUAUCGCUAUACAUGAGGAUCACCCAUGUUUACCACGCUGGUUUUUCGUACCGAGAAGGAUUCUGAUGAU [JL JR sub007 mod 4] (Eterna round: R96, puzzle: Same State NG 2)	25.4	36	36.1	–	–	–
AAUUAAGAUCAAGGAUAUCACGUCGAUUAGACGUGAGAAGGUGAUCCAUACAUGAGGAUCACCCAUGUAUAACAUGAAUUAAUU [SSNG1/8-B2] (Eterna round: R96, puzzle: Same State NG 1)	626	395	1580	–	–	–
AAUUAAGAUCGAGGAUAUCACGUCGAUUAGACGUGAGAAGGCGAUCAUAACAUGAGGAUCACCCAUGUAUUACAUGAAUUAAUU [SSNG1/4-B2] (Eterna round: R96, puzzle: Same State NG 1)	26.7	33.4	36.6	–	–	–
AAUUAAGAUCUAGGAUAUCACGUCGAAUAGACGUGAGAAGGAGAUCAUAACAUGAGGAUCACCCAUGUAUUACAUGAAUUAAUU [SSNG1/6-B1] (Eterna round: R96, puzzle: Same State NG 1)	21.6	28	28.4	–	–	–
AAUUAAUUAAUUAAUAUACAUGAGGAUCACCCAUGUAAGAUCAAGGAUAUCAGCUCGAAUAGAGCUGAGAAGGUGAUCACAUGU [SSNG3/16-A1] (Eterna round: R96, puzzle: Same State NG 3)	251	–	–	–	–	–
ACAAGCUUUUUAGGAGAGAAAGGAGGGAAACAUGAGGAUCACCCAUGUAUGGUAGUGAAUAGAGGAACUCGUCUUAU [JR_SHM208A_Sub080] (puzzle: Sensor for hsa-mir-208a)	–	–	–	90.5	25.6	152
ACAGCGAAACAUGAGGAUCACCCAUGUAAAGAAUAGGUGAAUUGUUGCUCGUCUUGAAGAGAAGAGAAGAAGGAGAG [Victory 1] (puzzle: Sensor for hsa-mir-208a version 2)	–	–	–	192	101	180
ACAUAGGUUUCAGGAUAUGGGUAAAUUCCCUACAUGAGGAUCACCCAUGUCCGUAGGGAUAACAUCCAGAAGGGAAGCCACAUA [MOD3 Eternabot Solution 1 (Score 87.5)] (Eterna round: R96, puzzle: Same State NG 2)	144	175	221	–	–	–
ACAUGACAUGACAUGAGGAUCACCCAUGUGAGGAUCACCCGGGAGGAUAUAGCCCAUGUGGAUCACUAGAAGGCCCUGAGGAUC [Same State NG3 S1] (Eterna round: R96, puzzle: Same State NG 3)	39.5	36.4	49.5	–	–	–
ACAUGAGACAUAGGAUAUCUUGUACCUACAUGUGACAUGAGGAUCACCCAUGUGGUAAGUAUGAGAGAGAAGGAUGAGAUAUGU [Equivalence 48 - Jieux - Same State NG 2] (Eterna round: R96, puzzle: Same State NG 2)	17.9	17.5	20.6	–	–	–
ACAUGAGACAUAGGAUAUGUUGUACCUACAUGUGACAUGAGGAUCACCCAUGUGGUAAGUAUGAGACAGAAGGAUGAGAUAUGU [Equivalence 30 - Jieux - Same State NG 2] (Eterna round: R96, puzzle: Same State NG 2)	43.4	27.5	73	–	–	–
ACAUGAGACCUAGGAUAUUUUGUACCUACAUGUGACAUGAGGAUCACCCAUGUGGUAAGUAUGAGAAAGAAGGAGGAGAUAUGU [Equivalence 21 - Jieux - Same State NG 2] (Eterna round: R96, puzzle: Same State NG 2)	30.1	18.1	36.7	–	–	–
ACAUGAGAGCGAGGAUAUAUUGUACCUACAUGUGACAUGAGGAUCACCCAUGUGGUAAGUAUGACAUAGAAGGCGCAGAUAUGU [Equivalance 91 - Jieux - Same State NG 2] (Eterna round: R96, puzzle: Same State NG 2)	27.8	21.4	33.7	–	–	–
ACAUGAGGAUCACCCAUGUAACACCUGAAAAUAAAACGAACACAGGAUAUCCCGACAUGACGUUGGGAGAAGGGUGAUCGAAGA [Leenrien] (Eterna round: R96, puzzle: Same State NG 3)	202	269	29.6	–	–	–
ACAUGAGGAUCACCCAUGUAUAGAUUUGAAUGUUAAGUUACGUAGGAUAUCGUGUUUAGUAUGAUCGAGAAGGACGAUCUGAUA [JR_SSNG3_Sub066] (Eterna round: R96, puzzle: Same State NG 3)	18.6	–	–	–	–	–
ACAUGAGGCGCAGGAUAUACAGUUGUAUAACAUGAGGACAUGACAUGAGGAUCACCCAUGUCCCAGUAGAAGGGCGAACAUGAG [Same State NG2 S2] (Eterna round: R96, puzzle: Same State NG 2)	102	172	144	–	–	–
ACCCAAAGUAUAUGGGAACGAGCUUUUUAACAUGAGGAUCACCCAUGUACUCGUCUUAUAAGCAGUCGAAAGACUGC [Sensor 100 - 3] (puzzle: Sensor for hsa-mir-208a)	–	–	–	359	19.2	390
ACGCAGCUGGGUGAGGAUAUCGGUGGUAAAACAUGAGGAUCACCCAUGUCCGAAGCUCGGACUUCCGAGAAGGCGCCCGGCUGCG [Soinraesar] (puzzle: Same State 2)	–	–	–	11.4	104	103
ACGCCCUCAGUAGGAUAUGGGAAAGGAAGUGUACCAGAAGGACUGGUUGAACAUGAGGAUCACCCAUGUUCAACGACAGGGCGA [PowerStrip SSNG 1.25] (Eterna round: R96, puzzle: Same State NG 1)	14	18.9	22.8	–	–	–
ACUCUCACAGUAGGAUAUGUAGGAUAUGCCUACAUGAGGAUCACCCAUGUAAACAUGGCAGAAGGAUAGAAGGACUUACAUUGG [pwkr ssNG2 2FMN + 1F5.1] (Eterna round: R96, puzzle: Same State NG 2)	577	495	762	–	–	–
